Data reported in publication PMC3169402, “Structure of fructose bisphosphate aldolase from Encephalitozoon cuniculi” (Acta Crystallographica Section F: Structural Biology and …, 2011).

Biological target: the molecule itself
Assay: crystal structure; sitting-drop vapour diffusion at 290 K, Bis-Tris propane pH 6.5, PEG 3350; phosphate-bound (2.00 Å) and FBP-bound (2.37 Å) forms, space group C222(1), data at 100 K

B1: Fructose bisphosphate aldolase from Encephalitozoon cuniculi (enzyme, UniProt Q8SSM8 1-338, looked up)
chain: MMDCDHLLRLGMTAKKILENGKGILAADETPKTLGRRFEKLGITNTEENRRKFREILFSTKGIERYIGGVILNQETFEQTSGSGVPLTELLKKKGIEIGIKLDKGLIDYKEKEKISVGLEDLDLRCKSSAFKDATFAKWRSLFYFYDGIPSEDCINENCSILAKYAIICQKNGLVPIVEPEVFLEGDYSMKRSYEVTRQILSTLMKYLNYELVYIPGVLIKASYVTSGQLSNEKYTPKKVATFTLRALLSTIPCGIPGIVFLSGGHGSEDAIGFLNAINMERGCRTWSLSFSFARALTDGVLETWRGDDSNIEEAQKILLETSFKACRGAEGKLWDQE
notes: Fructose bisphosphate aldolase (class I), Encephalitozoon cuniculi, UniProt Q8SSM8, full-length protein, residues 1 to 338; In PDB 3mbf Lys221 forms a Schiff base with fructose 1,6-bisphosphate; also called EcFBPA; FBPA; source: E. coli BL21(DE3)R3 Rosetta, purified (HisTrap IMAC, Superdex 75 SEC)
stoichiometry N: 2
